Reference: US20050124539A1 (Takeda / Millennium, published 2005)
No end group written: not given here. *: point of attachment. Propanoyl(3-indol-3-yl) = O=C(CCc1c[nH]c2ccccc12)*; 125I = [125I]*

Each binder was assayed against T1, Human GPR7 (human, UniProt P48145 1-328) (assay: competition with [125I-Tyr10]-hGPR8L(1-23), membrane fraction of GPR7 expressing CHO cells).
T1 construct: Full-length receptor expressed in CHO dhfr- cells; also called Human GPR7 receptor; GPR7 receptor
T1 sequence: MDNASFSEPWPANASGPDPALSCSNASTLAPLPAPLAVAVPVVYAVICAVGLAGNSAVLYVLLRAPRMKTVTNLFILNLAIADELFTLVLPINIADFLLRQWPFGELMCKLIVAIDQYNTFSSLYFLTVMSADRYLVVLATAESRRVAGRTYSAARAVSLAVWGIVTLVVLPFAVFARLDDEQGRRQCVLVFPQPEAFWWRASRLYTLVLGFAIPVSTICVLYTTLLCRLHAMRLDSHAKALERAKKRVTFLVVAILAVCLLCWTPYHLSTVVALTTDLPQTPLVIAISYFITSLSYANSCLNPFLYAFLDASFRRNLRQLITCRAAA

Binder	IC50 [nM]
RYHTVGRAAGLLMGL (also called hGPR8L(9-23)) [Human GPR8 ligand (9-23)]	2200
Ac-YKHVASPRYHTVGRAAGLLMGL (also called Ac-hGPR8L(2-23)) [[N-Acetyl-Tyr^2]-Human GPR8 ligand (2-23)]	570
{Propanoyl(3-indol-3-yl)}-YKHVASPRYHTVGRAAGLLMGL (also called IndPr-hGPR8L(2-23)) [[N-3-Indolepropanoyl-Tyr^2]-human GPR8 ligand (2-23)]	0.044
WYKHVASPRYHTVGRAAGLLXGL (methionine sulfoxide, Met(O), at position 21, also called [MET(O)]-hGPR8L(1-23)) [Human GPR8 ligand (1-23) oxidant]	0.17
WYKHVASPRYHTVGRAAGL (also called hGPR8L(1-19)) [Human GPR8 ligand (1-19)]	1.7
WYKHVASPRYHTVGRAAGLL (also called hGPR8L(1-20)) [Human GPR8 ligand (1-20)]	0.094

The binders below were run against T2, Human GPR8 receptor protein (human, UniProt P48146 1-333) (assay: competition with [125I-Tyr10]-hGPR8L(1-23), membrane fraction of GPR8 expressing CHO cells).
T2 construct: Full-length receptor expressed in CHO dhfr- cells (CHO/GPR8)
Experimental: (§1) Cell membrane fraction prepared from Human GPR8 expressing cells was diluted to various concentration with assay buffer (25 mM Tris-HCl, 5 mM EDTA, 0.05% CHAPS (3-[(3-Cholamidopropyl) Dimethyl-Ammonio]-1-Propanesulfonate), 0.1% BSA, 0.25 mM PMSF, 1 μg/ml Pepstatin, 20 μg/ml Leupeptin, pH7.4), and 200 μl each of the diluent was dispensed into polypropilene test tube (Falcon 2053). In order to determine an amount of maximum binding (TB), […] of DMSO and 2 μl of 7 nM [¹²⁵I-Tyr²]-hGPR8L(1-23) or [¹²⁵I-Tyr¹⁰]-hGPR8L(1-23) were added to the membrane fraction solution. Further, in order to determine a non-specific binding (NSB), 2 μt of 100 μM hGPR8L(1-23)/DMSO solution and 2 μl of 7 nM [¹²⁵I]-Tyr²]-hGPR8L(1-23) or [¹²⁵I-Tyr¹⁰]-hGPR8L(1-23) were added to the membrane fraction solution. The reaction was done at 25° C. for 60 minutes, and the reaction mixture was filtered by suction filtration using Whatman glassfilter (GF-F) treated with polyethyleneimine. After filtration, a radioactivity remaining on the filter was counted using γ-counter, and an amount of specific binding (SB) was estimated by subtracting an amount of non-specific binding from an amount of maximum binding. Since the specific binding in the case where [¹²⁵I-Tyr¹⁰]-hGPR8L(1-23) was used, was twice as much as that in the case where [¹²⁵1-Tyr²]-hGPR8L(1-23) was used, in practice, [¹²⁵I-Tyr¹⁰]-hGPR8L(1-23) was used in the assay. When the concentration of membrane fraction was changed, a specific binding of [¹²⁵I-Tyr¹⁰]-hGPR8L(1-23) was perceived depending on the concentration of membrane fraction.
A receptor binding activity of human- and porcine-homologue derivatives of GPR8 ligand peptide, wherein the synthesis method has been described in the specification, was measured using a membrane fraction of GPR8 expressing CHO cells and [¹²⁵-Tyr¹⁰]-hGPR8L(1-23) by the method described in Reference Example 43.

T2 sequence (P48146 whole entry): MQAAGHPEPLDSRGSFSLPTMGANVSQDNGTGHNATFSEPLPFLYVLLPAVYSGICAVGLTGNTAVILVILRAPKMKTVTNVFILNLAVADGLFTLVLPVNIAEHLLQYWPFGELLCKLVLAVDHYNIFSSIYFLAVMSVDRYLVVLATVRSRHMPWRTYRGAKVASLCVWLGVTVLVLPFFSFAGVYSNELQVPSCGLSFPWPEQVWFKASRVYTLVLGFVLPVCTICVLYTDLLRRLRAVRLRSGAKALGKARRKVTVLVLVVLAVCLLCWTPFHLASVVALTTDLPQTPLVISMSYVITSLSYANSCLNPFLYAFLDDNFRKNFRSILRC

Binder	IC50 [nM]
RYHTVGRAAGLLMGL (also called hGPR8L(9-23)) [Human GPR8 ligand (9-23)]	1300
Ac-YKHVASPRYHTVGRAAGLLMGL (also called Ac-hGPR8L(2-23)) [[N-Acetyl-Tyr^2]-Human GPR8 ligand (2-23)]	420
{Propanoyl(3-indol-3-yl)}-YKHVASPRYHTVGRAAGLLMGL (also called IndPr-hGPR8L(2-23)) [[N-3-Indolepropanoyl-Tyr^2]-human GPR8 ligand (2-23)]	0.28
WYKHVASPRYHTVGRAAGLLXGL (methionine sulfoxide, Met(O), at position 21, also called [MET(O)]-hGPR8L(1-23)) [Human GPR8 ligand (1-23) oxidant]	0.31
WYKHVASPRYHTVGRAAGL (also called hGPR8L(1-19)) [Human GPR8 ligand (1-19)]	100
WYKHVASPRYHTVGRAAGLL (also called hGPR8L(1-20)) [Human GPR8 ligand (1-20)]	0.2

These binders were tested against T2, Human GPR8 receptor protein (assay: cell-based or functional assay).

Binder	Promoting activity to GTPγS binding (EC50 nM) [nM]
RYHTVGRAAGLLMGL (also called hGPR8L(9-23)) [Human GPR8 ligand (9-23)]	4200
Ac-YKHVASPRYHTVGRAAGLLMGL (also called Ac-hGPR8L(2-23)) [[N-Acetyl-Tyr^2]-Human GPR8 ligand (2-23)]	7200
{Propanoyl(3-indol-3-yl)}-YKHVASPRYHTVGRAAGLLMGL (also called IndPr-hGPR8L(2-23)) [[N-3-Indolepropanoyl-Tyr^2]-human GPR8 ligand (2-23)]	5
WYKHVASPRYHTVGRAAGLLXGL (methionine sulfoxide, Met(O), at position 21, also called [MET(O)]-hGPR8L(1-23)) [Human GPR8 ligand (1-23) oxidant]	1.4
WYKHVASPRYHTVGRAAGL (also called hGPR8L(1-19)) [Human GPR8 ligand (1-19)]	1000
WYKHVASPRYHTVGRAAGLL (also called hGPR8L(1-20)) [Human GPR8 ligand (1-20)]	0.86

Each binder was assayed against T1, Human GPR7 (assay: radioligand filter binding, membrane fraction of Human GPR7 expressing CHO cells).

Binder	binding result
WYKHVASPRY(125I)HTVGRAAGLLMGL [[^125I-Tyr^10]-hGPR8L(1-23)]	binds

Each binder was assayed against T3, TGR26, rat-derived G protein-coupled receptor protein (rat, UniProt Q56UD9 1-329) (assay: radioligand filter binding, membrane fraction of TGR26 expressing CHO cells).
T3 construct: Expressed in CHO dhfr- cells from pAK-rGPR7; also called rat TGR26; TGR26 receptor
T3 sequence: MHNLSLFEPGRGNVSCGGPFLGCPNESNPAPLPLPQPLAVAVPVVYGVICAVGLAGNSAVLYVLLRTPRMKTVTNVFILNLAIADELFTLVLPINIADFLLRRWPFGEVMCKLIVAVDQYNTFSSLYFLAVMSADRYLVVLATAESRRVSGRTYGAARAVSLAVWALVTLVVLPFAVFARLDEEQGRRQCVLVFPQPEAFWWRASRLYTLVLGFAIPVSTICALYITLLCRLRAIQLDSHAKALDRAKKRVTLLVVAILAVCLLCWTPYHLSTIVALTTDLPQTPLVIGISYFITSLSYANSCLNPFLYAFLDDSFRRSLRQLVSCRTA
Experimental: Cell membrane fraction prepared from TGR26 expressing cells was diluted to various concentration with assay buffer (25 mM Tris-HCl, 5 mM EDTA, 0.05% CHAPS (3-[(3-Cholamidopropyl) Dimethyl-Ammonio]-1-Propanesulfonate), 0.1% BSA, 0.5 mM PMSF, 1 μg/ml Pepstatin, 20 μg/ml Leupeptin, 4 μg/ml E-64, pH7.4), and 200 μl each of the diluent was dispensed into polypropilene test tube (Falcon 2053). In order to determine an amount of maximum binding, 2 μl of DMSO and 2 μl of 7 nM [¹²⁵-Tyr¹⁰]-hGPR8L(1-23) were added to the membrane fraction solution. Further, in order to determine a non-specific binding, 2 μl of 100 μM hGPR8L(1-23)/DMSO solution and 2 μl of 7 nM [¹²⁵I]-Tyr¹⁰]-hGPR8L(1-23) were added to the membrane fraction solution. The reaction was done at 25° C. for 75 minutes, and the reaction mixture was filtered by suction filtration using Whatman glassfilter (GF-F) treated with polyethyleneimine. In addition, the filter was washed twice with 1.5 ml of washing buffer (25 mM Tris-HCl, 5 mM EDTA, 0.05% CHAPS, 0.1% BSA, pH7.4). After filtration, a radioactivity remaining on the filter was counted using γ-counter, and an amount of specific binding was estimated by subtracting an amount of non-specific binding from an amount of maximum binding. […]

Binder	binding result
WYKHVASPRY(125I)HTVGRAAGLLMGL [[^125I-Tyr^10]-hGPR8L(1-23)]	binds

What follows are binders tested against T1, Human GPR7 (assay: cell-based or functional assay).

Binder	Promoting activity to GTPγS binding (EC50 nM) [nM]
RYHTVGRAAGLLMGL (also called hGPR8L(9-23)) [Human GPR8 ligand (9-23)]	> 10000
Ac-YKHVASPRYHTVGRAAGLLMGL (also called Ac-hGPR8L(2-23)) [[N-Acetyl-Tyr^2]-Human GPR8 ligand (2-23)]	7000
{Propanoyl(3-indol-3-yl)}-YKHVASPRYHTVGRAAGLLMGL (also called IndPr-hGPR8L(2-23)) [[N-3-Indolepropanoyl-Tyr^2]-human GPR8 ligand (2-23)]	0.85
WYKHVASPRYHTVGRAAGLLXGL (methionine sulfoxide, Met(O), at position 21, also called [MET(O)]-hGPR8L(1-23)) [Human GPR8 ligand (1-23) oxidant]	1.6
WYKHVASPRYHTVGRAAGL (also called hGPR8L(1-19)) [Human GPR8 ligand (1-19)]	84
WYKHVASPRYHTVGRAAGLL (also called hGPR8L(1-20)) [Human GPR8 ligand (1-20)]	0.88

Each binder was assayed against T2, Human GPR8 receptor protein (assay: radioligand filter binding, membrane fraction of Human GPR8 expressing CHO cells).
Experimental: Using [¹²⁵I]-labeled hGPR8L(1-23) prepared as described in Reference Example 42 and a cell membrane fraction prepared from Human GPR8 expressing cells by the similar manner as described in Reference Example 6, a receptor binding assay was carried out as follows.
as §1, with “The reaction was done at 25° C. for 60 minutes, and the reaction mixture was filtered by suction filtration using Whatman glassfilter (GF-F) treated with polyethyleneimine.” left out, “Since the specific binding in the case where [¹²⁵I-Tyr¹⁰]-hGPR8L(1-23) was used, was twice as much as that in the case where [¹²⁵1-Tyr²]-hGPR8L(1-23) was used, in practice, [¹²⁵I-Tyr¹⁰]-hGPR8L(1-23) was used in the assay. When the concentration of membrane fraction was changed, a specific binding of [¹²⁵I-Tyr¹⁰]-hGPR8L(1-23) was perceived depending on the concentration of membrane fraction.” left out

Binder	binding result
WY(125I)KHVASPRYHTVGRAAGLLMGL [[^125I-Tyr^2]-hGPR8L(1-23)]	binds
WYKHVASPRY(125I)HTVGRAAGLLMGL [[^125I-Tyr^10]-hGPR8L(1-23)]	binds

The binders below were run against T3, TGR26, rat-derived G protein-coupled … (assay: competition with [125I-Tyr10]-hGPR8L(1-23), membrane fraction of TGR26 expressing CHO cells).
Experimental: Cell membrane fraction prepared from TGR26 expressing cells was diluted to various concentration with assay buffer (25 mM Tris-HCl, 5 mM EDTA, 0.05% CHAPS (3-[(3-Cholamidopropyl) Dimethyl-Ammonio]-1-Propanesulfonate), 0.1% BSA, 0.5 mM PMSF, 1 μg/ml Pepstatin, 20 μg/ml Leupeptin, 4 μg/ml E-64, pH7.4), and 200 μl each of the diluent was dispensed into polypropilene test tube (Falcon 2053). In order to determine an amount of maximum binding, 2 μl of DMSO and 2 μl of 7 nM [¹²⁵-Tyr¹⁰]-hGPR8L(1-23) were added to the membrane fraction solution. Further, in order to determine a non-specific binding, 2 μl of 100 μM hGPR8L(1-23)/DMSO solution and 2 μl of 7 nM [¹²⁵I]-Tyr¹⁰]-hGPR8L(1-23) were added to the membrane fraction solution. The reaction was done at 25° C. for 75 minutes, and the reaction mixture was filtered by suction filtration using Whatman glassfilter (GF-F) treated with polyethyleneimine. In addition, the filter was washed twice with 1.5 ml of washing buffer (25 mM Tris-HCl, 5 mM EDTA, 0.05% CHAPS, 0.1% BSA, pH7.4). After filtration, a radioactivity remaining on the filter was counted using γ-counter, and an amount of specific binding was estimated by subtracting an amount of non-specific binding from an amount of maximum binding.
A receptor binding activity of human- and porcine-homologue derivatives of GPR8 ligand peptide obtained in the reference examples was measured using a membrane fraction of TGR26 expressing CHO cells and [¹²⁵I-Tyr¹⁰]-hGPR8L(1-23) by the method described in Reference Example 73.

Binder	IC50 [nM]
RYHTVGRAAGLLMGL (also called hGPR8L(9-23)) [Human GPR8 ligand (9-23)]	2500
Ac-YKHVASPRYHTVGRAAGLLMGL (also called Ac-hGPR8L(2-23)) [[N-Acetyl-Tyr^2]-Human GPR8 ligand (2-23)]	570
{Propanoyl(3-indol-3-yl)}-YKHVASPRYHTVGRAAGLLMGL (also called IndPr-hGPR8L(2-23)) [[N-3-Indolepropanoyl-Tyr^2]-human GPR8 ligand (2-23)]	0.12
WYKHVASPRYHTVGRAAGLLXGL (methionine sulfoxide, Met(O), at position 21, also called [MET(O)]-hGPR8L(1-23)) [Human GPR8 ligand (1-23) oxidant]	0.29
WYKHVASPRYHTVGRAAGL (also called hGPR8L(1-19)) [Human GPR8 ligand (1-19)]	9.9
WYKHVASPRYHTVGRAAGLL (also called hGPR8L(1-20)) [Human GPR8 ligand (1-20)]	0.17
